# Measured values published in US20090291890A1 (published 2009).
# Residue numbers refer to the chain shown, from its start. Names and notes keep the numbering of the source. Values joined by “and” are separate entries in the source; they are usually repeats but may differ in a detail not shown here. Identical values can stand only once.
# B1: FVIIa variant H216A/H257A (enzyme)
# chain: ANAFLEELRPGSLERECKEEQCSFEEAREIFKDAERTKLFWISYSDGDQCASSPCQNGGSCKDQLQSYICFCLPAFEGRNCETHKDDQLICVNENGGCEQYCSDHTGTKRSCRCHEGYSLLADGVSCTPTVEYPCGKIPILEKRNASKPQGRIVGGKVCPKGECPWQVLLLVNGAQLCGGTLINTIWVVSAAHCFDKIKNWRNLIAVLGEHDLSEADGDEQSRRVAQVIIPSTYVPGTTNHDIALLRLHQPVVLTDAVVPLCLPERTFSERTLAFVRFSLVSGWGQLLDRGATALELMVLNVPRLMTQDCLQQSRKVGDSPNITEYMFCAGYSDGSKDSCKGDSGGPHATHYRGTWYLTGIVSWGQGCATVGHFGVYTRVSQYIEWLQKLMRSEPRPGVLLRAPFP
# B2: FVIIa variant H216A/S222A (enzyme)
# chain: B1 chain with S222A, A257H
# B3: FVIIa variant Q366V/H373L (enzyme)
# chain: B1 chain with A216H, A257H, Q366V, H373L
# B4: FVIIa variant A51N (enzyme)
# chain: B1 chain with A51N, A216H, A257H
# B5: FVIIa variant S222A/H257A/Q286R/Q366V (enzyme)
# chain: B1 chain with A216H, S222A, Q286R, Q366V
# B6: FVIIa variant Q286R/M298Q/Q366N (enzyme)
# chain: B1 chain with A216H, A257H, Q286R, M298Q, Q366N
# B7: FVIIa variant H257S/Q286R (enzyme)
# chain: B1 chain with A216H, A257S, Q286R
# B8: FVIIa variant Q286R/Q366N (enzyme)
# chain: B1 chain with A216H, A257H, Q286R, Q366N
# B9: FVIIa variant H257S/Q286R/Q366V (enzyme)
# chain: B1 chain with A216H, A257S, Q286R, Q366V
# B10: FVIIa variant M298Q/H373F (enzyme)
# chain: B1 chain with A216H, A257H, M298Q, H373F
# B11: FVIIa variant Q286R/M298Q/Q366D (enzyme)
# chain: B1 chain with A216H, A257H, Q286R, M298Q, Q366D
# B12: FVIIa variant P321S (enzyme)
# chain: B1 chain with A216H, A257H, P321S
# B13: FVIIa variant S222A/H373A (enzyme)
# chain: B1 chain with A216H, S222A, A257H, H373A
# B14: FVIIa variant P321K (enzyme)
# chain: B1 chain with A216H, A257H, P321K
# B15: FVIIa variant Q286R/H373F (enzyme)
# chain: B1 chain with A216H, A257H, Q286R, H373F
# B16: FVIIa variant Q286R/M298Q/H373F (enzyme)
# chain: B1 chain with A216H, A257H, Q286R, M298Q, H373F
# B17: FVIIa variant Q286R/H373A (enzyme)
# chain: B1 chain with A216H, A257H, Q286R, H373A
# B18: FVIIa variant Q286R/Q366V (enzyme)
# chain: B1 chain with A216H, A257H, Q286R, Q366V
# B19: FVIIa variant Q286R/M298Q/K341D (enzyme)
# chain: B1 chain with A216H, A257H, Q286R, M298Q, K341D
# B20: FVIIa variant Q286R/Q366D (enzyme)
# chain: B1 chain with A216H, A257H, Q286R, Q366D
# B21: FVIIa variant P321Y (enzyme)
# chain: B1 chain with A216H, A257H, P321Y
# B22: FVIIa variant S119N/L121S (enzyme)
# chain: B1 chain with S119N, L121S, A216H, A257H
# B23: FVIIa variant S222A/M298Q (enzyme)
# chain: B1 chain with A216H, S222A, A257H, M298Q
# B24: FVIIa variant T239N (enzyme)
# chain: B1 chain with A216H, T239N, A257H
# B25: FVIIa variant Q366V/H373V (enzyme)
# chain: B1 chain with A216H, A257H, Q366V, H373V
# B26: FVIIa variant P321E (enzyme)
# chain: B1 chain with A216H, A257H, P321E
# B27: FVIIa variant Q286R/K341D (enzyme)
# chain: B1 chain with A216H, A257H, Q286R, K341D
# B28: FVIIa variant H257S/Q366V (enzyme)
# chain: B1 chain with A216H, A257S, Q366V
# B29: FVIIa variant H257A/M298Q (enzyme)
# chain: B1 chain with A216H, M298Q
# Key:
# [1] = molecular target: Factor X (Homo sapiens (Human)) (UniProt P00742)
# Mesyl-dFPR-ACC = molecular target: T1, Mesyl-dFPR-ACC
# T1 sequence (peptide, N-terminal mesyl; D-Phe at position 1 (dF); C-terminal ACC fluorophore): FPR
# [2] = molecular target: Factor X (FX) (Homo sapiens (Human)) (UniProt P00742)
# Chain of Factor X (FX) (Homo sapiens (Human)) (P00742 41-488 limits assumed): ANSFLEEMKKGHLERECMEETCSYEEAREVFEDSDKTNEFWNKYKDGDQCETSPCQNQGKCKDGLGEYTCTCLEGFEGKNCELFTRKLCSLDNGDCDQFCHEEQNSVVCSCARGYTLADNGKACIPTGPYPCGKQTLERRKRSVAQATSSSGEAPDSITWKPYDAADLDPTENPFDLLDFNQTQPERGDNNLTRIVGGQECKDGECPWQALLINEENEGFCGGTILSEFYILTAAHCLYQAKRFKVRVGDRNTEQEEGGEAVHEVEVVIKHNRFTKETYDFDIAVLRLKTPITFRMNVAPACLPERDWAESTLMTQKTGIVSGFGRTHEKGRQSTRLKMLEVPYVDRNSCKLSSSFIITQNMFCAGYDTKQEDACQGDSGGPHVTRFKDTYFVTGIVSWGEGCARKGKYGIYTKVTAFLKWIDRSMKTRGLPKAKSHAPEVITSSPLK
Molecule,"kcat/KM (M^-1s^-1), TF-dependent assay [1]","kcat/KM, TF-independent assay [1]","Activity (µmol/sec/µmol), specific activity for mesyl-dFPR-ACC (µmol/sec/µmol) (Mesyl-dFPR-ACC)","kcat/KM, TF-Dependent Indirect Assay [2]",further results
Gla swap FIX-FVIIa (enzyme),5.38e+07 M⁻¹ s⁻¹,41.3 M⁻¹ s⁻¹,1.63,,
T128N/P129A/A175S/Q366V-FVIIa (enzyme),3.38e+07 M⁻¹ s⁻¹,3.4 M⁻¹ s⁻¹,3.4,,
Gla swapFIX/Q366V-FVIIa (enzyme),9.11e+07 M⁻¹ s⁻¹,90 M⁻¹ s⁻¹,2.82,,
WT FVIIa (enzyme),,,2.4,,
Gla swap FIX/T128N/P129A/S222A/Q286R-FVIIa (enzyme),1.47e+08 M⁻¹ s⁻¹ and 1.43e+08 M⁻¹ s⁻¹,15.5 M⁻¹ s⁻¹ and 21.3 M⁻¹ s⁻¹,0.53,,
Gla swap FIX/S222A/Q286R/M298Q/H373F-FVIIa (enzyme),2.84e+08 M⁻¹ s⁻¹,192 M⁻¹ s⁻¹,1.92,,
Gla swap FIX/Q286R/S222A/H257S-FVIIa (enzyme),8.53e+07 M⁻¹ s⁻¹,,0.49,,
Gla swap FIX/T128N/P129A/Q286R/M298Q-FVIIa (enzyme),2.11e+08 M⁻¹ s⁻¹ and 1.99e+08 M⁻¹ s⁻¹,,0.78,,
T128N/P129A/A175S/Q286R-FVIIa (enzyme),3.33e+07 M⁻¹ s⁻¹,3.3 M⁻¹ s⁻¹,1.88,,
{Gla swap FIX/M19K}/Q286R/M298Q-FVIIa (enzyme),1.41e+08 M⁻¹ s⁻¹,512 M⁻¹ s⁻¹,1.26,,
A122N/G124S/A175S/Q286R/M298Q/H373F-FVIIa (enzyme),,,2.71,,"kcat/KM, TF-dependent assay [1]: 8.39e+07 M⁻¹ s⁻¹"
T128N/P129A/A175S/Q286R/M298Q/H373F-FVIIa (enzyme),,,2.78,,"kcat/KM, TF-dependent assay [1]: 5.72e+07 M⁻¹ s⁻¹"
{Gla swap FIX/K43I}/Q286R/M298Q-FVIIa (enzyme),2.73e+08 M⁻¹ s⁻¹ and 2.91e+08 M⁻¹ s⁻¹,902 M⁻¹ s⁻¹ and 794 M⁻¹ s⁻¹,1.2,,
T128N/P129A/Q286R-FVIIa (enzyme),8.45e+07 M⁻¹ s⁻¹ and 6.2e+07 M⁻¹ s⁻¹,8.7 M⁻¹ s⁻¹ and 10.5 M⁻¹ s⁻¹,1.21,,
GlaSwapFIX/S222A/T239I/Q286R-FVIIa (enzyme),6.77e+07 M⁻¹ s⁻¹,,0.25,,
WT (NovoSeven®) FVIIa (enzyme),,,2.31,,
S52A/S60A/S222A-FVIIa (enzyme),3.91e+07 M⁻¹ s⁻¹,10.2 M⁻¹ s⁻¹ and 19.6 M⁻¹ s⁻¹,1.22,,
V158D/E296V/M298Q-FVIIa (enzyme),1.81e+08 M⁻¹ s⁻¹ and 1.65e+08 M⁻¹ s⁻¹,1220 M⁻¹ s⁻¹ and 984 M⁻¹ s⁻¹,3.28,,
S52A/S60A/Q286R-FVIIa (enzyme),4.1e+07 M⁻¹ s⁻¹,,0.44,,
T128N/P129A/V158D/E296V/M298Q-FVIIa (enzyme),2.01e+08 M⁻¹ s⁻¹,1380 M⁻¹ s⁻¹,3.26,,
{Gla swap FIX/E40L}/Q286R/M298Q-FVIIa (enzyme),2.08e+08 M⁻¹ s⁻¹,814 M⁻¹ s⁻¹,1.16,,
Gla swap FIX/S52A/S60A/S222A/Q286R-FVIIa (enzyme),7.24e+07 M⁻¹ s⁻¹,2.9 M⁻¹ s⁻¹,0.44,,
Q286R-FVIIa (enzyme),8.06e+07 M⁻¹ s⁻¹,10.3 M⁻¹ s⁻¹,1.24,,
T128N/P129A/S222A/H257A/Q286R/M298Q-FVIIa (enzyme),1.55e+08 M⁻¹ s⁻¹ and 1.73e+08 M⁻¹ s⁻¹,,1.66,,
Gla swap FIX/S222A/Q286R/H373F-FVIIa (enzyme),1.22e+08 M⁻¹ s⁻¹,81.2 M⁻¹ s⁻¹,1.37,,
S52A/S60A/S222A/H257A/Q286R/M298Q-FVIIa (enzyme),2.49e+08 M⁻¹ s⁻¹,116 M⁻¹ s⁻¹,0.98,,
B1,,,,6.62e+07 M⁻¹ s⁻¹,
B2,,,,5.46e+07 M⁻¹ s⁻¹,

Molecule,"kcat/KM (M^-1s^-1), TF-dependent assay [1]","kcat/KM, TF-independent assay [1]","Activity (µmol/sec/µmol), specific activity for mesyl-dFPR-ACC (µmol/sec/µmol) (Mesyl-dFPR-ACC)","kcat/KM, TF-Dependent Indirect Assay [2]",further results
B3,,,,3.07e+07 M⁻¹ s⁻¹,
B4,,,,1.02e+08 M⁻¹ s⁻¹,
B5,,,,1.86e+08 M⁻¹ s⁻¹,
B6,,,,1.04e+08 M⁻¹ s⁻¹,
B7,,,,3.93e+07 M⁻¹ s⁻¹,
B8,,,,5.42e+07 M⁻¹ s⁻¹,
B9,,,,1.58e+08 M⁻¹ s⁻¹,
B10,,,,8.49e+07 M⁻¹ s⁻¹,
B11,,,,1.91e+07 M⁻¹ s⁻¹,
B12,,,,5.53e+07 M⁻¹ s⁻¹,
B13,,,,3.64e+07 M⁻¹ s⁻¹,
B14,,,,3.43e+07 M⁻¹ s⁻¹,
B15,,,,9.08e+07 M⁻¹ s⁻¹,
B16,,,,1.51e+08 M⁻¹ s⁻¹,
B17,,,,5.89e+07 M⁻¹ s⁻¹,
B18,,,,7.92e+07 M⁻¹ s⁻¹,
B19,,,,1.18e+07 M⁻¹ s⁻¹,
B20,,,,1.53e+07 M⁻¹ s⁻¹,
B21,,,,4.48e+07 M⁻¹ s⁻¹,
B22,,,,5.75e+07 M⁻¹ s⁻¹,
B23,,,,7.13e+07 M⁻¹ s⁻¹,
B24,,,,1.64e+07 M⁻¹ s⁻¹,
B25,,,,1.84e+07 M⁻¹ s⁻¹,
B26,,,,5.59e+07 M⁻¹ s⁻¹,
B27,,,,1.11e+07 M⁻¹ s⁻¹,
B28,,,,6.71e+07 M⁻¹ s⁻¹,
B29,,,,1.28e+08 M⁻¹ s⁻¹,
